Results: US20100233154A1 (AstraZeneca / MedImmune, published 2010)

Assays:
[1] = molecular target: T1, human heparanase as used in the cross species capture ELISA (human, UniProt Q9Y251 36-543, limits assumed); test: cross species capture ELISA, heparanase captured by rabbit anti-heparanase antibody, exhaustive supernatant 1:5, anti-human IgG Fc detection
T1 construct: Captured on plates by a rabbit anti-heparanase antibody
T1 sequence (looked up): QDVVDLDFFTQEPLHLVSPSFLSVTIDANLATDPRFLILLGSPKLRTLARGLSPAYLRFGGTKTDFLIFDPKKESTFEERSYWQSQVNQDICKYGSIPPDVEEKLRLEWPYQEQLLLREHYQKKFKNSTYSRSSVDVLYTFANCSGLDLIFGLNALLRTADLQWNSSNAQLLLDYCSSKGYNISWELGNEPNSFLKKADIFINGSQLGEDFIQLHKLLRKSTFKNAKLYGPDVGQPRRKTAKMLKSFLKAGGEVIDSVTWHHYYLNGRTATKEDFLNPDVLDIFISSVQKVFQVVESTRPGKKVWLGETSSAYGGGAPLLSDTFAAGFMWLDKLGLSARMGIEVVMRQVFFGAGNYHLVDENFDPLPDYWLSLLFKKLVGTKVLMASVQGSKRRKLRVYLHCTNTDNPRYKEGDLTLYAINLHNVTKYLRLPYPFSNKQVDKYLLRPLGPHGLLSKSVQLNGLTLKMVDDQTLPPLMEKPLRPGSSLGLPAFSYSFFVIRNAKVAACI
Protocol: (§1) Initially, cross species binding to human, murine and cynomolgus heparanase was determined in an ELISA assay in which heparanase was captured onto plates using a rabbit anti-heparanase antibody (Raybiotech, Cat. IP-14-155). Exhaustive supernatants were added to the plates at a final dilution of 1:5 and bound antibody detected with a rabbit anti-human IgG Fc.

murine heparanase = molecular target: T2, murine heparanase (murine, UniProt Q6YGZ1 28-535, limits assumed); test: as above
T2 construct: also called Mouse; recombinant murine heparanase
T2 sequence (looked up): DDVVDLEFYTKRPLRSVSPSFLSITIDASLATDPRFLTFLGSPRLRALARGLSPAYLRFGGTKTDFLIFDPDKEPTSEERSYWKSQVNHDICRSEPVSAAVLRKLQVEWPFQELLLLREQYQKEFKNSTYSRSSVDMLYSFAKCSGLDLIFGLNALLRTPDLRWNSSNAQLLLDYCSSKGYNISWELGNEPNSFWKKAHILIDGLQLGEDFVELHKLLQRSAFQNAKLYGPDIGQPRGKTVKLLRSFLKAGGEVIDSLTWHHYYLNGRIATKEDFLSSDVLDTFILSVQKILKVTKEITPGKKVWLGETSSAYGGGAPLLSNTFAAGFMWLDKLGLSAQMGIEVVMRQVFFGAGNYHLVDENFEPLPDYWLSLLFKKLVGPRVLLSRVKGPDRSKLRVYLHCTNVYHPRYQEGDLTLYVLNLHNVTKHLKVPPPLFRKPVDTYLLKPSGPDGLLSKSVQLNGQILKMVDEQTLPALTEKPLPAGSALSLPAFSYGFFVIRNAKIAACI
Protocol: as §1

cynomolgus heparanase = molecular target: T3, cynomolgus heparanase (cynomolgus, UniProt A0A2K5UQU0 87-593); test: as above
T3 construct: also called recombinant cynomolgus heparanase
T3 sequence: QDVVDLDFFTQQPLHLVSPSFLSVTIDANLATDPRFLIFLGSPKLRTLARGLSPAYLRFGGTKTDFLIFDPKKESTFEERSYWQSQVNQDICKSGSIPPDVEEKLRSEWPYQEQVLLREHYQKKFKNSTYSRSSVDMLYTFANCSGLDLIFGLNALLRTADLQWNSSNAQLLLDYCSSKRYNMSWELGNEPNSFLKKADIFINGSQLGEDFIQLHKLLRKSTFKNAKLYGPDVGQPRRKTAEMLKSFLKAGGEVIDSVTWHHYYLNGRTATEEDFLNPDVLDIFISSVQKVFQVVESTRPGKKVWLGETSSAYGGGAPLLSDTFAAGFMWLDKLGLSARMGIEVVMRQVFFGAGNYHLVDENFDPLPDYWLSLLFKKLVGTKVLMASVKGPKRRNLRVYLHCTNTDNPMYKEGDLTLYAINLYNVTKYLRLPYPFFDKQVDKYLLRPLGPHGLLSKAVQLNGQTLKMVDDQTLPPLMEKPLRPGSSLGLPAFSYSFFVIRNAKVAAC
Protocol: as §1

[2] = molecular target: T4, recombinant human heparanase (active, 8 and 50 kDa sub-units, from baculovirus-infected Hi5 cells) (human, UniProt Q9Y251 36-109; Q9Y251 158-543); test: cell-based or functional assay
T4 sequence (looked up) 1: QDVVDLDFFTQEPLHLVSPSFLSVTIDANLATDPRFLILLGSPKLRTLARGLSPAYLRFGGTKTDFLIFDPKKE
T4 sequence (looked up) 2: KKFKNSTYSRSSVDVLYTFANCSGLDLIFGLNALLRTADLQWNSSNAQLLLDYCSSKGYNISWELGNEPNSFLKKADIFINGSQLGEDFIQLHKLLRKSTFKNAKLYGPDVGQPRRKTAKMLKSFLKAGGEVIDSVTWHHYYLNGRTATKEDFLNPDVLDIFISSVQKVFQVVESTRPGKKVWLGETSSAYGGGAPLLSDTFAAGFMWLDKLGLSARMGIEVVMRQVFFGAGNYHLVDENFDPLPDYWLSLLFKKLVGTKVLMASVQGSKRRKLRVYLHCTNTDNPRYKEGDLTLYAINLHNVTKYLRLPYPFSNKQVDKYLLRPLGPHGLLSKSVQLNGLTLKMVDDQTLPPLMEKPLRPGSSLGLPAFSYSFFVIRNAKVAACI

[3] = molecular target: T4, recombinant human heparanase (active, 8 …); test: ELISA, hybridoma supernatant on directly coated recombinant human heparanase
[4] = molecular target: T4, recombinant human heparanase (active, 8 …); test: medium resolution Biacore, antibody captured on goat anti-human antibody CM4 chip, recombinant Hpa1 at 1 nM and 10 nM, 25 C, 1:1 model with mass transport
Protocol: For medium resolution Biacore™ tests, cloned and purified antibodies were used. Each of three purified antibodies (10E9.1, 15A1.2, and 15A11.1) were captured onto a high-density goat anti-human antibody surface over a CM4 Biacore™ chip. Recombinant Hpa1 was diluted to the desired concentration (1 nM and 10 nM) in 10 mM HEPES, 150 mM NaCl, 0.005% tween-20, 0.1 mg per ml BSA pH7.4 (25° C.) immediately prior to injection. Data were fit globally to a 1:1 interaction model with a term for mass transport included. The resulting KD values are summarised below in Table 4.

B1: monoclonal antibody 7B9.1 (antibody, V domains shown)
VH: QVQLVESGGGVVQPGRSLRLSCAASGFTFSSYGMHWVRQAPGKGLEWVAVIWYDGSNKYYADSVKGRFTISRDNSKNTLYLQMNSLRAEDTAVYYCAREGAPYSSSDAFDIWGQGTMVTVSS
VL: QSVLTQPPSVSGAPGQRVTISCTGSSSNIGANYDVHWYQQLPGTAPKLLIYGDNNRPSGVPDRFSGSKSGTSASLAITGLQAEDEADYYCQSYDSSLSGSVFGGGTKLTVL
notes: Fully human (XenoMouse) antibody
- OD, binding to heparanase (Human) [1]: 0.68 OD units
- OD, binding to heparanase (Mouse) (murine heparanase): 0.58 OD units
- OD, binding to heparanase (Cyno) (cynomolgus heparanase): 1.06 OD units
- Inhibition of recombinant human heparanase %, Assay 1 [2]: 63%
- Inhibition of recombinant human heparanase %, Assay 2 [2]: 54%
- OD, binding to direct coated heparanase [3]: 3.78 OD units

B2: monoclonal antibody 15A11.1 (antibody, V domains shown)
VH: QVQLVQSGAEVKKPGASVKVSCKVSGDTLTELSMHWVRQTPGKGLEWMGGFDPEDGETIYAQKFQGRVTMTGDTSTDTAYMELSSLRSEDTAVYYCATEGDYGDSEEYYYYYGMDVWGQGTTVTVSS
VL: DIQMTQSPSSLSASVGDRVTITCRASQGISNYLAWYQQKPGKVPKLLIYAASTLQSGVPSRFSGSGSGTDFTLTISSLQPEDVATYYCQKYNRAPFTFGPGTKVDIK
notes: Fully human (XenoMouse) antibody; also called ATCC PTA-9490
- Kd [4]: 0.056 nM
- koff [4]: 0.000309 s⁻¹
- kon [4]: 3.6e+06 M⁻¹ s⁻¹
- OD, binding to heparanase (Human) [1]: 0.21 OD units
- OD, binding to heparanase (Mouse) (murine heparanase): 0.17 OD units
- OD, binding to heparanase (Cyno) (cynomolgus heparanase): 0.14 OD units
- Inhibition of recombinant human heparanase %, Assay 1 [2]: 75%
- Inhibition of recombinant human heparanase %, Assay 2 [2]: 87%
- OD, binding to direct coated heparanase [3]: 0.07 OD units

B3: monoclonal antibody 16E1.1 (antibody, V domains shown)
VH: QVQLQESGPGLVKPSQTLSLTCTVSGGSISSGGYYWSWIRQHPGKGLEWIGFIYYSGSTFYNPSLKSRITISVDTSKNQFSLKLSSVTAADTAVYYCARPYSSSWYGAFDIWGQGTMVTVSS
VL: SYELTQPPSVSVSPGRTASITCSEDKLGNKYAYWYQQKPGQSPVLVIYQDSERPSGIPERFSGSNSGNTATLTISGTQAMDEADYYCQAWDSSTVVFGGGTKLTVL
notes: as for B1
- OD, binding to heparanase (Human) [1]: 1.08 OD units
- OD, binding to heparanase (Mouse) (murine heparanase): 0.63 OD units
- OD, binding to heparanase (Cyno) (cynomolgus heparanase): 1.66 OD units
- Inhibition of recombinant human heparanase %, Assay 1 [2]: 40%
- Inhibition of recombinant human heparanase %, Assay 2 [2]: 51%
- OD, binding to direct coated heparanase [3]: 0.15 OD units

B4: monoclonal antibody 16G1.1 (antibody, V domains shown)
VH: QVQLVESGGGVVQPGRSLRLSCAASGFTFSSYGMHWVRQAPGKGLEWVAVIWYDGSNKYYADSVKGRFTISRDNSKNTLNLQMNSLRAEDTAVYYCGRDPGTYHYYYHGMDVWGQGTTVTVSS
VL: YIVMTQSPLSLPVTPGEPASISCRSSQSLLHSNGYNFLDWYLQKPGQSPQLLIYLGSNRASGVPDRFSGSGSGTDFTLKINRVEAEDVGVYYCMQALQTPITFGQGTRLEIK
notes: as for B1
- OD, binding to heparanase (Human) [1]: 1.84 OD units
- OD, binding to heparanase (Mouse) (murine heparanase): 0.61 OD units
- OD, binding to heparanase (Cyno) (cynomolgus heparanase): 1.64 OD units
- Inhibition of recombinant human heparanase %, Assay 1 [2]: 44%
- Inhibition of recombinant human heparanase %, Assay 2 [2]: 53%
- OD, binding to direct coated heparanase [3]: 3.63 OD units

B5: monoclonal antibody 10E9.1 (antibody, V domains shown)
VH: QVQLVQSGAEVKKPGASVKVSCKVSGYSLTELSIHWVRQAPGKGLEWMGGFDPEDGEIIFAQKFQGRVTLTEDISLDTAYMEVSSLRSEDTAVYYCATEGHDSGDYVGYYYYGLDVWGQGTTVTVSS
VL: DIQMTQSPSSLSASVGDRVTITCRASQDIRNFLAWYQQKPGKLPKLLIYAASTLQSGVPSRFSGSGSGTDFTLTISSLQPEDVASYYCQSHNSVPFTFGPGTKVDIR
notes: Fully human (XenoMouse) antibody; also called mAb 10E9.1; ATCC PTA-9489
- Kd [4]: 0.0545 nM
- koff [4]: 0.000112 s⁻¹
- kon [4]: 2.06e+06 M⁻¹ s⁻¹
- OD, binding to heparanase (Human) [1]: 0.63 OD units
- OD, binding to heparanase (Mouse) (murine heparanase): 0.49 OD units
- OD, binding to heparanase (Cyno) (cynomolgus heparanase): 1.4 OD units
- Inhibition of recombinant human heparanase %, Assay 1 [2]: 88%
- Inhibition of recombinant human heparanase %, Assay 2 [2]: 99%
- OD, binding to direct coated heparanase [3]: 0.2 OD units

B6: monoclonal antibody 14H12.3 (antibody, V domains shown)
VH: QVQLVESGGGVVQPGRSLRLSCAASGFTFSSYGMHWVRQAPGKGLEWVAVIWYDGSNKDYADSVKGRFTISRDNSKNTLYLQMNSLRAEDTAVYYCAREGSTSWTDYYGMDVWGQGTTVTVSS
VL: SYELTQPPSVSVSPGQTARITCSGDALPKRYAYWYQQKSGQALVLVIYEDSKRPSGIPERFSGSSSGTMATLTISGAQVEDEADYYCYSIDSSGNHGVFGGGTKLTVL
notes: as for B1
- OD, binding to heparanase (Human) [1]: 0.61 OD units
- OD, binding to heparanase (Mouse) (murine heparanase): 0.14 OD units
- OD, binding to heparanase (Cyno) (cynomolgus heparanase): 0.95 OD units
- Inhibition of recombinant human heparanase %, Assay 1 [2]: 58%
- Inhibition of recombinant human heparanase %, Assay 2 [2]: 85%
- OD, binding to direct coated heparanase [3]: 3.69 OD units

B7: monoclonal antibody 15A1.2 (antibody, V domains shown)
VH: QVQLVQSGAEVKKPGASVKVSCKVSGYTLTELSMHWVRQAPGKGLEWMGGFDPEDGETIFAQKFQGRVTMTEDTSTDTAYMELSSLRSEDTAVYYCATGLRFLEWFLWGWDVWGQGTTVTVSS
VL: DIQMTQSPSSVSASVGDRVTITCRASQGISNWLAWYQQTPGKAPQLLIYGASSLQSGVPSRFSGSGSGTDFTLTISSLQPEDFATYYCQQADSFPPTFGQGTKVEIK
notes: Fully human (XenoMouse) antibody; also called ATCC PTA-9491
- Kd [4]: 0.056 nM
- koff [4]: 0.000105 s⁻¹
- kon [4]: 1.88e+06 M⁻¹ s⁻¹
- OD, binding to heparanase (Human) [1]: 0.19 OD units
- OD, binding to heparanase (Mouse) (murine heparanase): 0.14 OD units
- Inhibition of recombinant human heparanase %, Assay 1 [2]: 81%
- Inhibition of recombinant human heparanase %, Assay 2 [2]: 91%
- OD, binding to direct coated heparanase [3]: 0.08 OD units
